This is an account of results in the RNAGym collection of RNA variant scans (doi:10.1093/molbev/msab373).

B1: Azoarcus group I ribozyme (parent)
chain: GUGCCUUGCGCCGGGAAACCACGCAAGGGAUGGUGUCAAAUUCGGCGAAACCUAAGCGCCCGCCCGGGCGUAUGGCAACGCCGAGCCAAGCUUCGGCGCCUGCGCCGAUGAAGGUGUAGAGACUAGACGGCACCCACCUAAGGCAAACGCUAUGGUGAAGGCAUAGUCCAGGGAGUGGCGAAAGUCACACAAACCGG

In the data set the parent is B1. Kind of data set: reverse-splicing fitness (ratio to wild type); higher = more active; in vitro selection; Mg2+ level not given. A digest of the protocol:
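An in vitro group I ribozyme library with randomized positions was T7-transcribed and gel-purified. In triplicate, 10 pmol RNA in EPPS pH 7.5 was reacted with 50 pmoles of a 30-nt RNA substrate for 1 h at 37 °C across several added MgCl2 levels (1–48 mM), then stopped with EDTA. Products were reverse transcribed from a substrate-complementary primer, PCR-amplified and sequenced (HiSeq 4000). Fitness is a variant's read proportion after selection over that before, normalised to wild type.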
In the case of C82A A111G A120C A145C C150G C169G, the reverse-splicing fitness was found to be 0.00705.

Regarding C82G A120C C150G, the reverse-splicing fitness amounted to 0.0159. With A120U A145G C150G C169A U176A, the reverse-splicing fitness was 0.0107. Next, C82U A145G C169U U176A: 0.0137; C82G A111G A120G A145G C150A C169A U176C: 0.0231. On to A111U A120G A145C, for which the reverse-splicing fitness worked out at 0.159. With C82A A111U A120G A145U C150U C169A U176G, the reverse-splicing fitness turned out to be 0.0057. Consider C82G A111G A120U C150A U176G, for which the reverse-splicing fitness came out at 0.00368. Take C82A A120U A145G C150A C169A U176C: the reverse-splicing fitness was 0.00397. Consider A120G A145C C150U C169A U176G, for which the reverse-splicing fitness amounted to 0.00586. On to C82A A111G A120C A145G C150G C169A U176C, for which the reverse-splicing fitness came out at 0.0137. Next, C82A A111G A120U A145U C150U C169U U176G: 0.00222; A111C A120G C150A C169A U176A: 0.0174; C82U A111C A120U A145U C150G U176G: 0.00316. Regarding A111G A120G A145C C150G C169A U176A, the reverse-splicing fitness was 0.00837. Regarding C82G A111C A120C A145C, the reverse-splicing fitness stood at 0.0447. As to C82G A120G A145C C169G U176C, the reverse-splicing fitness worked out at 0.0224. On to C82G A120C A145G C150G C169A U176G, for which the reverse-splicing fitness is 0.00912. Next, C82G A111U A120C A145G C150G U176A: 0.00813; C82A A111U A145G C150U C169U U176C: 0.0148; A111C A120C A145U C150G U176C: 0.034. Take C82U A111U C169A U176G: the reverse-splicing fitness amounted to 0.00543. As for C82A A111G A120G A145U C150U C169G U176G, the reverse-splicing fitness amounted to 0.00537.

For the variant C82A A111C C150G C169G U176A, the reverse-splicing fitness turned out to be 0.00718. As to C82A A111C A120U A145C C150U C169A U176C, the reverse-splicing fitness stood at 0.00378. A145G C150A U176A: the reverse-splicing fitness is 0.472.

C82G A120G A145C C150U C169U U176C: the reverse-splicing fitness stood at 0.0138. Consider C82U A111G A145C C150U U176C, for which the reverse-splicing fitness was found to be 0.0617. Regarding C82A A111C A120G A145U U176C, the reverse-splicing fitness came out at 0.0197.

As for C82U A111U A120C A145G C150A, the reverse-splicing fitness is 0.0116. Take C82U A111C A120G A145U C150G C169U U176C: the reverse-splicing fitness was found to be 0.0106. As for C82G A111C A120C A145C C169U U176C, the reverse-splicing fitness stood at 0.0151. For the variant A111U A120G A145U C169A U176A, the reverse-splicing fitness stood at 0.0201. Turning to C82U A111G A120U A145U C169G U176C, the reverse-splicing fitness was 0.00255. Next, A111G A145G: 0.9; A111C A120G A145C C169G U176A: 0.0348. For the variant C82A A111U A145U C150U C169G U176G, the reverse-splicing fitness is 0.00663.

With C82A A145C C150G C169U U176C, the reverse-splicing fitness was 0.00749. Take A145G C150G: the reverse-splicing fitness turned out to be 0.48. Next, C82U A120G U176C: 0.0175. Take C82G A111G A120U C150U C169G U176A: the reverse-splicing fitness was 0.00758. In the case of C82G A111G A120G A145C U176C, the reverse-splicing fitness was found to be 0.0181. Take C82U A111G A120U A145U C150A C169U: the reverse-splicing fitness was 0.00292. Next, A145G C169A U176A: 0.0412; C82A A120U A145G C169G: 0.00528. C82A A111G A120G C150U C169U U176G: the reverse-splicing fitness turned out to be 0.00738.

Consider C82A A120G A145C C150G U176C, for which the reverse-splicing fitness stood at 0.00686.

On to A111G A145C C150G U176G, for which the reverse-splicing fitness was 0.0319. For C82U A111C A120C C169U U176A, the reverse-splicing fitness was 0.018. As for A111G A120C A145G C169A U176A, the reverse-splicing fitness was 0.0173. Regarding C82A A111C A120U C169A U176G, the reverse-splicing fitness came out at 0.00184.

With C82U A120G A145U C150U, the reverse-splicing fitness came to 0.0176.

As for C82A A111G A145U C150U C169G U176A, the reverse-splicing fitness was 0.0131. As to C82G A145C U176G, the reverse-splicing fitness was 0.153. Next, A111G A120U A145U C150U C169U U176A: 0.0131; A111G A120C A145G C150A C169U U176C: 0.0231. With C82A A111C A120C A145U C150G C169A U176G, the reverse-splicing fitness amounted to 0.00744.

For C82G A120G A145U C150A C169A U176A, the reverse-splicing fitness was 0.014. Next, C82G A111G A145G C150G C169G: 0.00774.

C82A A111G A120G A145C C150G: the reverse-splicing fitness came out at 0.00656.

Turning to A120U A145U C150G U176C, the reverse-splicing fitness is 0.148. Consider A111U A120U A145U C150A U176G, for which the reverse-splicing fitness came to 0.00946. For the variant C82A A111U A120U A145G C150G C169G U176C, the reverse-splicing fitness amounted to 0.00639. Next, C82U A120G C150U C169U: 0.0137; C82G A145U C150A C169G U176G: 0.00436; A111U A145U C150G C169A: 0.0102. Next, C82U A120G C150A C169A U176A: 0.0174; C82U A120C A145C C150A C169G U176A: 0.0162; C82U A111G A120G A145U C169A: 0.00841.

With C82G A111U A120C A145G C150G C169A U176C, the reverse-splicing fitness amounted to 0.0149.

Regarding C82G A111U A120U A145C C150A C169U U176A, the reverse-splicing fitness amounted to 0.00306.

For the variant C82G A120G C150A C169U U176G, the reverse-splicing fitness was 0.00754.

Regarding C82U A111G A120U A145G C150A, the reverse-splicing fitness was 0.01.

Turning to C82G A111U A145G C150A, the reverse-splicing fitness stood at 0.0434. Next, C82G A111U A120C A145G C150U C169A U176C: 0.0177. Next, A120G C169U U176G: 0.0211; C82A A111C A120U A145U C150G C169G U176A: 0.00314. Next, C82U A111G A120G A145C C150U C169A U176A: 0.0104. Regarding C82A A111G A120G C150G C169G, the reverse-splicing fitness amounted to 0.00739.

C82A A111U A120G A145G C150G C169G U176A: the reverse-splicing fitness is 0.0109.

In the case of C82G A111C A120C A145G C150A C169A U176C, the reverse-splicing fitness was found to be 0.0188.

As to C82U A111U A120C A145C C169G U176A, the reverse-splicing fitness amounted to 0.0202. Next, C82U A120G A145U: 0.0237. For the variant C82U A120C C150G C169A U176C, the reverse-splicing fitness stood at 0.00991.
